Measurements as given in publication PMC10404244, “Control of motor landing and processivity by the CAP-Gly domain in the KIF13B tail” (Nature Communications, 2023).

Legend:
[1] = molecular target: the molecule itself; assay: mass photometry; lower concentration(s) of the construct (KIF13B^Δtail: the lower of two; KIF13B^CG: low and intermediate), HP buffer pH 7.0, room temperature; monomer to dimer
[2] = molecular target: T1, tyrosinated microtubules polymerized from recombinant human α1A/βIII tubulin (human, UniProt Q71U36 1-451; Q13509 1-450); assay: TIRF microscopy microtubule-binding assay (standard deviation map); differentially labelled tyrosinated and detyrosinated taxol microtubules held by biotin-streptavidin in the same chamber, sfGFP motors in solution, 2 mM ATP, HP assay buffer pH 7.0; conditions: both partners purified
T1 construct: human alpha-tubulin isotype α1A, fully tyrosinated; human beta-tubulin isotype βIII; Plasmids (pFAST-Dual) were gifts from A. Roll-Mecak; also called recombinant human tubulin (fully tyrosinated); not shown: His tag (from the HisTrap purification)

[3] = molecular target: the molecule itself; assay: two-colour single-molecule TIRF microscopy; sfGFP- and mScarlet (I)-tagged KIF13BK414A co-expressed and purified together (molar ratio ~1:5 mScarlet (I): sfGFP), seen on immobilised tyrosinated and CPA-treated detyrosinated microtubules; 2 mM ATP or 2 mM ADP
[4] = molecular target: T2, tyrosinated microtubules polymerized from purified porcine brain tubulin (porcine, UniProt P02550 1-451); Q767L7 1-444, part of the tubulin labelled with biotin NHS ester and Dylight-405 (or Alexa647) NHS ester (chain and residues not told) | part of the tubulin labelled with biotin NHS ester and Dylight-405 (or …); assay: TIRF microscopy microtubule-binding assay; KIF5B constructs on tyrosinated and detyrosinated microtubules in the presence of ADP (Supplementary Fig. 5G); read-out not told
T2 construct: alpha-tubulin of porcine brain, mixture of isotypes and PTMs, approximately 50% tyrosinated; beta-tubulin of porcine brain, mixture of isotypes and PTMs; A polymer of alpha/beta-tubulin dimers, held on the coverslip through biotin-streptavidin; also called WT (tyrosinated) microtubules; tyrosinated MTs; source: purified from porcine brain (high-molarity PIPES procedure), polymerized with GTP, …

T1 sequence (Q71U36 whole entry, chain 1 of 2): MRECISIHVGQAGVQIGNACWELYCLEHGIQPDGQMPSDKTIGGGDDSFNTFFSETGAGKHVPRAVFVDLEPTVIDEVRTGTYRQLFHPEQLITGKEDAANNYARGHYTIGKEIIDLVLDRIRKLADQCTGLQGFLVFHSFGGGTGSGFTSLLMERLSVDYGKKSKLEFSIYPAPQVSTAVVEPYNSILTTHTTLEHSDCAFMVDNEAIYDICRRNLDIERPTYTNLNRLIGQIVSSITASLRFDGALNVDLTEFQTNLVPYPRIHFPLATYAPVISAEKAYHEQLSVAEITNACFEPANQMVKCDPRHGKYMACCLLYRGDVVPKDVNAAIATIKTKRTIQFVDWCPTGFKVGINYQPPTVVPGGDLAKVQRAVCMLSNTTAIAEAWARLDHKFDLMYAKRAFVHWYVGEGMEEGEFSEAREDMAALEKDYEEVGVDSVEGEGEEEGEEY
T1 sequence (Q13509 whole entry, chain 2 of 2): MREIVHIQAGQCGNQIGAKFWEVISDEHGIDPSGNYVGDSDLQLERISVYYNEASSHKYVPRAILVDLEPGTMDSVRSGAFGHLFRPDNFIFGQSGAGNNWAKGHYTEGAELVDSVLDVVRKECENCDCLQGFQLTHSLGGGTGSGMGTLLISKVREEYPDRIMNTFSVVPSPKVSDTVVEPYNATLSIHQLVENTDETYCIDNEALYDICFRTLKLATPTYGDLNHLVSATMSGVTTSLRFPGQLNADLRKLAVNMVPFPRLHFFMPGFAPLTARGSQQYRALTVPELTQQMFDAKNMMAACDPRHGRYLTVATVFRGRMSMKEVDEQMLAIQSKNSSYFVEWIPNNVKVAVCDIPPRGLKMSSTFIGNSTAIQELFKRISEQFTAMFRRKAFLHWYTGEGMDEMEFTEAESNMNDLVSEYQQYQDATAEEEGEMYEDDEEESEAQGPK

B1: human KIF13B tail-truncated (a.a. 1–679), C-terminal sfGFP-StrepII (domain or fragment, UniProt Q9NQT8 1-679, looked up)
chain: MGDSKVKVAVRIRPMNRRETDLHTKCVVDVDANKVILNPVNTNLSKGDARGQPKVFAYDHCFWSMDESVKEKYAGQDIVFKCLGENILQNAFDGYNACIFAYGQTGSGKSYTMMGTADQPGLIPRLCSGLFERTQKEENEEQSFKVEVSYMEIYNEKVRDLLDPKGSRQTLKVREHSVLGPYVDGLSKLAVTSYKDIESLMSEGNKSRTVAATNMNEESSRSHAVFKITLTHTLYDVKSGTSGEKVGKLSLVDLAGSERATKTGAAGDRLKEGSNINKSLTTLGLVISALADQSAGKNKNKFVPYRDSVLTWLLKDSLGGNSKTAMVATVSPAADNYDETLSTLRYADRAKHIVNHAVVNEDPNARIIRDLREEVEKLREQLTKAEAMKSPELKDRLEESEKLIQEMTVTWEEKLRKTEEIAQERQKQLESLGISLQSSGIKVGDDKCFLVNLNADPALNELLVYYLKEHTLIGSANSQDIQLCGMGILPEHCIIDITSEGQVMLTPQKNTRTFVNGSSVSSPIQLHHGDRILWGNNHFFRLNLPKKKKKAEREDEDQDPSMKNENSSEQLDVDGDSSSEVSSEVNFNYEYAQMEVTMKALGSNDPMQSILNSLEQQHEEEKRSALERQRLMYEHELEQLRRRLSPEKQNCRSMDRFSFHSPSAQQRLRQWAEEREATL
notes: KIF13B, human, a.a; 1–679; truncated after the predicted second coiled-coil, within the MBS domain; also called KIF13B^Δtail; KIF13^Δtail; source: Sf9 insect cells (baculovirus), purified (Strep-Tactin XT, gel filtration); not shown: sfGFP, C-terminal, kept
[1]
  binding result: binds
[2]
  binding result: binds

B2: KIF13B K414A, full-length human KIF13B with the point mutation K414A, C-terminal sfGFP-StrepII (natural protein, UniProt Q9NQT8 1-1826, looked up)
chain: MGDSKVKVAVRIRPMNRRETDLHTKCVVDVDANKVILNPVNTNLSKGDARGQPKVFAYDHCFWSMDESVKEKYAGQDIVFKCLGENILQNAFDGYNACIFAYGQTGSGKSYTMMGTADQPGLIPRLCSGLFERTQKEENEEQSFKVEVSYMEIYNEKVRDLLDPKGSRQTLKVREHSVLGPYVDGLSKLAVTSYKDIESLMSEGNKSRTVAATNMNEESSRSHAVFKITLTHTLYDVKSGTSGEKVGKLSLVDLAGSERATKTGAAGDRLKEGSNINKSLTTLGLVISALADQSAGKNKNKFVPYRDSVLTWLLKDSLGGNSKTAMVATVSPAADNYDETLSTLRYADRAKHIVNHAVVNEDPNARIIRDLREEVEKLREQLTKAEAMKSPELKDRLEESEKLIQEMTVTWEEALRKTEEIAQERQKQLESLGISLQSSGIKVGDDKCFLVNLNADPALNELLVYYLKEHTLIGSANSQDIQLCGMGILPEHCIIDITSEGQVMLTPQKNTRTFVNGSSVSSPIQLHHGDRILWGNNHFFRLNLPKKKKKAEREDEDQDPSMKNENSSEQLDVDGDSSSEVSSEVNFNYEYAQMEVTMKALGSNDPMQSILNSLEQQHEEEKRSALERQRLMYEHELEQLRRRLSPEKQNCRSMDRFSFHSPSAQQRLRQWAEEREATLNNSLMRLREQIVKANLLVREANYIAEELDKRTEYKVTLQIPASSLDANRKRGSLLSEPAIQVRRKGKGKQIWSLEKLDNRLLDMRDLYQEWKECEEDNPVIRSYFKRADPFYDEQENHSLIGVANVFLESLFYDVKLQYAVPIINQKGEVAGRLHVEVMRLSGDVGERIAGGDEVAEVSFEKETQENKLVCMVKILQATGLPQHLSHFVFCKYSFWDQQEPVIVAPEVDTSSSSVSKEPHCMVVFDHCNEFSVNITEDFIEHLSEGALAIEVYGHKINDPRKNPALWDLGIIQAKTRSLRDRWSEVTRKLEFWVQILEQNENGEYCPVEVISAKDVPTGGIFQLRQGQSRRVQVEVKSVQESGTLPLMEECILSVGIGCVKVRPLRAPRTHETFHEEEEDMDSYQDRDLERLRRKWLNALTKRQEYLDQQLQKLVSKRDKTEDDADREAQLLEMRLTLTEERNAVMVPSAGSGIPGAPAEWTPVPGMETHIPVIFLDLNADDFSSQDNLDDPEAGGWDATLTGEEEEEFFELQIVKQHDGEVKAEASWDSAVHGCPQLSRGTPVDERLFLIVRVTVQLSHPADMQLVLRKRICVNVHGRQGFAQSLLKKMSHRSSIPGCGVTFEIVSNIPEDAQGVEEREALARMAANVENPASADSEAYIEKYLRSVLAVENLLTLDRLRQEVAVKEQLTGKGKLSRRSISSPNVNRLSGSRQDLIPSYSLGSNKGRWESQQDVSQTTVSRGIAPAPALSVSPQNNHSPDPGLSNLAASYLNPVKSFVPQMPKLLKSLFPVRDEKRGKRPSPLAHQPVPRIMVQSASPDIRVTRMEEAQPEMGPDVLVQTMGAPALKICDKPAKVPSPPPVIAVTAVTPAPEAQDGPPSPLSEASSGYFSHSVSTATLSDALGPGLDAAAPPGSMPTAPEAEPEAPISHPPPPTAVPAEEPPGPQQLVSPGRERPDLEAPAPGSPFRVRRVRASELRSFSRMLAGDPGCSPGAEGNAPAPGAGGQALASDSEEADEVPEWLREGEFVTVGAHKTGVVRYVGPADFQEGTWVGVELDLPSGKNDGSIGGKQYFRCNPGYGLLVRPSRVRRATGPVRRRSTGLRLGAPEARRSATLSGSATNLASLTAALAKADRSHKNPENRKSWAS
notes: kinesin KIF13B, human, full length, point mutant K414A; molar ratio about 1:5 (mScarlet (I): sfGFP); also called KIF13BK414A-sfGFP; HsKIF13BK414A-sfGFP-StrepII; source: Sf9, purified (Strep-Tactin XT, gel filtration); for the two-colour assay Sf9 co-infected with the sfGFP-StrepII and the mScarlet-StrepII viruses; not shown: sfGFP, C-terminal, kept
[3]
  binding result: binds

B3: chimeric KIF5B motor domain and stalk appended with the CAP-Gly domain from KIF13B (other)
chain: MADLAECNIKVMCRFRPLNESEVNRGDKYIAKFQGEDTVVIASKPYAFDRVFQSSTSQEQVYNDCAKKIVKDVLEGYNGTIFAYGQTSSGKTHTMEGKLHDPEGMGIIPRIVQDIFNYIYSMDENLEFHIKVSYFEIYLDKIRDLLDVSKTNLSVHEDKNRVPYVKGCTERFVCSPDEVMDTIDEGKSNRHVAVTNMNEHSSRSHSIFLINVKQENTQTEQKLSGKLYLVDLAGSEKVSKTGAEGAVLDEAKNINKSLSALGNVISALAEGSTYVPYRDSKMTRILQDSLGGNCRTTIVICCSPSSYNESETKSTLLFGQRAKTIKNTVCVNVELTAEQWKKKYEKEKEKNKILRNTIQWLENELNRWRNGETVPIDEQFDKEKANLEAFTVDKDITLTNDKPATAIGVIGNFTDAERRKCEEEIAKLYKQLDDKDEEINQQSQLVEKLKTQMLDQEELLASTRRDQDNMQAELNRLQAENDASKEEVKEVLQALEELAVNYDQKSQEVEDKTKEYELLSDELNQKSATLASIDAELQKLKEMTNHQKKRAAEMMASLLKDLAEIGIAVGNNDVKQPEGTGMIDEEFTVARLYISKMKSEVKTMVKRCKQLESTQTESNKKMEENEKELAACQLRISQHEAKIKSLTEYLQNVEQKKRQLEESVDALSEELVQLRAQEKVHEMEKEHLNKVQTANEVKQAVEQQIQSHRETHQKQISSLRDEVEAKAKLITDLQDQNQKMMLEQERLRVEHEKLKATDQEKSRKLHELTVMQDRREQARQDLKGLEETVAKELQTLHNLRKLFVQDLATRVKKSAEIDSDDTGGSAAQKQKISFLENNLEQLTKVHKQLVRDNADLRCELPKLEKRLRATAERVKALESALKEAKENASRDRKRYQQEVDRIKEAVRSKNMAQALASDSEEADEVPEWLREGEFVTVGAHKTGVVRYVGPADFQEGTWVGVELDLPSGKNDGSIGGKQYFRCNPGYGLLVRPSRVRRATGPVRRRSTGLRLGAPEARRSATLSGSATNLASLTAALAKADRSHKNPENRKSWAS
[4]
  fold binding, tyrosinated over detyrosinated microtubules (ADP): ~16 fold
